Ka and stoichiometry N data for two substances are collected here from PMC5503811.

By stoichiometry N is commonly meant the number of molecules, sites or subunits per partner or assembly.

Assay [1] has as its target ALDH7A1 G255D (human). In words: AUC.
For assay [2], the target named is wild-type human aldehyde dehydrogenase 7A1 (human). In words: AUC.

In assay [1], ALDH7A1 G255D (enzyme) returned a Ka of 750000 M⁻¹.
With “wild-type human aldehyde dehydrogenase 7A1 (enzyme)”, in assay [2], the stoichiometry N worked out at 4.
